Source: patent publication US20100260765A1 (AstraZeneca / MedImmune, published 2010)

Legend:
human KDR [1] = biological target: T1, human KDR (human, UniProt P35968 20-1356); test: cell-based or functional assay
human KDR [2] = biological target: T1, human KDR; test: cell-based or functional assay; remark: listed apart in the source
human KDR [3] = biological target: T1, human KDR; test: cell-based or functional assay; remark: listed apart in the source
[4] = biological target: T2, mouse KDR (Flk-1)/Fc (Cat. #443-KD/CF, R&D Systems, Inc.) (mouse, UniProt P35918 20-762); test: ELISA, Flk-1 coat 5 ug/mL, antibody 1 ug/mL
T2 construct: Bought reagent; also called mouse VEGFR2; KDR mouse ortholog; not shown: Fc of the bought fusion protein
T2 sequence (P35918 20-762 limits assumed): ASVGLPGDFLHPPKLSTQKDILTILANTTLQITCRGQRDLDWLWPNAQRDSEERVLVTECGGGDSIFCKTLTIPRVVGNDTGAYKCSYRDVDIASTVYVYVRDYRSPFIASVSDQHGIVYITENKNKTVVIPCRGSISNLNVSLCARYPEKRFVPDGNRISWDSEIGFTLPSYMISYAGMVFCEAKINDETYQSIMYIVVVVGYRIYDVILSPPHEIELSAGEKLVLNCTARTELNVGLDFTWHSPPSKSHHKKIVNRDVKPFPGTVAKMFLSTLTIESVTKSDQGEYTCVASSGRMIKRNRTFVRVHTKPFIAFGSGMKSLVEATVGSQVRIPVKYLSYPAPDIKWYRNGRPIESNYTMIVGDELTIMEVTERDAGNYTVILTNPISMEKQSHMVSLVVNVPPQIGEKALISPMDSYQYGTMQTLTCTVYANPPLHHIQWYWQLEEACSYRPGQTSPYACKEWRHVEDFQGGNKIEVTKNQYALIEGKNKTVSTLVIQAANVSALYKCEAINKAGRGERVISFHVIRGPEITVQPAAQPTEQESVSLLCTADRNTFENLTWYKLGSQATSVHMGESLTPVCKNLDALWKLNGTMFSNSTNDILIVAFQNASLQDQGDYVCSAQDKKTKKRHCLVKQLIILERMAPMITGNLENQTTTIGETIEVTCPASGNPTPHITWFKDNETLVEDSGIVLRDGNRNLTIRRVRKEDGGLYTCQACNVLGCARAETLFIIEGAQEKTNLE
In short: (§1)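 Purified antibodies were tested by ELISA for binding to immobilised target protein to assess cross-reactivity with the mouse ortholog and binding to the soluble Ig4-7 fragment. IgG1 and IgG4 isotype antibodies served as controls.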

[5] = biological target: T2, mouse KDR (Flk-1)/Fc (Cat. #443-KD/CF, …); test: ELISA, Flk-1 coat 5 ug/mL, antibody 0.1 ug/mL
In short: as §1

[6] = biological target: T3, whole KDR-ECD (Cat. # 676490, Calbiochem) (human, UniProt P35968 20-764); test: ELISA, KDR-ECD coat 5 ug/mL, antibody 1 ug/mL
T3 construct: extracellular domain; Bought soluble protein; also called soluble KDR; VEGF Receptor 2 D1-7
T3 sequence (P35968 20-764): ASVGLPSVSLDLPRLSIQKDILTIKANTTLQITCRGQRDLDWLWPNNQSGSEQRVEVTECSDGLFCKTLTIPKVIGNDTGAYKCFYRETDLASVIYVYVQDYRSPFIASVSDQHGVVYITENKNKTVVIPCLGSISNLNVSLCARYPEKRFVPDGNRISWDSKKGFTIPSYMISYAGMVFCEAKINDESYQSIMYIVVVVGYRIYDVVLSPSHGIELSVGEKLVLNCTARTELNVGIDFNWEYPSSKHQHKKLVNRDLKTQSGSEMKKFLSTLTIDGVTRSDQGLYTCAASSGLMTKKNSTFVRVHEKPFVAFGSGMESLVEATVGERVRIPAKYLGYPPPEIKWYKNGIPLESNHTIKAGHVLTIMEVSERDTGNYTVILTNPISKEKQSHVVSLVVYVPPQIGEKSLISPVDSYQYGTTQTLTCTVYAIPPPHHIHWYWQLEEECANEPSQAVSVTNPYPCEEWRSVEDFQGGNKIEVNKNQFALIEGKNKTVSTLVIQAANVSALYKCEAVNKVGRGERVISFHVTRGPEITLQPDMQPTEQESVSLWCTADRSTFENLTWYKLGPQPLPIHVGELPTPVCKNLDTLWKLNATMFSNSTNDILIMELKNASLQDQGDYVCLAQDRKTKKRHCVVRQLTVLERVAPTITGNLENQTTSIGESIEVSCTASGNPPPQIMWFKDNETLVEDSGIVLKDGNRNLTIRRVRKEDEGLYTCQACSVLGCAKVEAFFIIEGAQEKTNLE
In short: (§2)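 Coat wells with the recombinant receptor protein, add purified antibody, then detect the bound antibody by ELISA. Isotype IgG1 and IgG4 are run alongside as controls.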

[7] = biological target: T2, mouse KDR (Flk-1)/Fc (Cat. #443-KD/CF, …); test: ELISA, Flk-1 coat 5 ug/mL, antibody 0.01 ug/mL
In short: as §1

[8] = biological target: T3, whole KDR-ECD (Cat. # 676490, …); test: ELISA, KDR-ECD coat 5 ug/mL, antibody 0.1 ug/mL
In short: as §2

[9] = biological target: T3, whole KDR-ECD (Cat. # 676490, …); test: ELISA, KDR-ECD coat 5 ug/mL, antibody 0.01 ug/mL
In short: as §2

soluble KDR Ig4-7 domain [10] = biological target: T4, soluble KDR Ig4-7 domain (human, UniProt P35968 328-764); test: ELISA, KDR Ig4-7 coat (1:1 diln.), antibody 1 ug/mL
T4 construct: domain: Ig4-7 domain; also called b-KDRIg4-7-myc-his; Ig4-7 domain of KDR; not shown: myc-his tag of the pSecTag construct
T4 sequence (P35968 328-764): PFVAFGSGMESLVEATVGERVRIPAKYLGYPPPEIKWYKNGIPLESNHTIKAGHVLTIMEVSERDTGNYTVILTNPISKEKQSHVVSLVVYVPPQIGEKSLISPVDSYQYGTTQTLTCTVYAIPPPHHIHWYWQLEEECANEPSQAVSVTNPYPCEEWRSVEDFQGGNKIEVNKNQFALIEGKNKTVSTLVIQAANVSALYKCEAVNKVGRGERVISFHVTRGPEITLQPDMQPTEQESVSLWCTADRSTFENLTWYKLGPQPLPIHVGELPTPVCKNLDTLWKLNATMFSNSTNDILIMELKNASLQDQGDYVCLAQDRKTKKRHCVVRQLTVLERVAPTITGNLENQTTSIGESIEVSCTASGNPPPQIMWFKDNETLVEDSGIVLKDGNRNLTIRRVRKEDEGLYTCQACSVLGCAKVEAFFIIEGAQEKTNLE
In short: as §1

soluble KDR Ig4-7 domain [11] = biological target: T4, soluble KDR Ig4-7 domain; test: ELISA, KDR Ig4-7 coat (1:1 diln.), antibody 0.1 ug/mL
In short: as §1

cynomolgus KDR = biological target: T5, cynomolgus KDR (cynomolgus monkey, UniProt A0A2K5VE63 20-1356); test: FACS on Cyno KDR/293T transfectants, antibody 5 ug/mL
T5 construct: whole, on cells; also called Cyno KDR
T5 sequence (A0A2K5VE63 entry or part of it): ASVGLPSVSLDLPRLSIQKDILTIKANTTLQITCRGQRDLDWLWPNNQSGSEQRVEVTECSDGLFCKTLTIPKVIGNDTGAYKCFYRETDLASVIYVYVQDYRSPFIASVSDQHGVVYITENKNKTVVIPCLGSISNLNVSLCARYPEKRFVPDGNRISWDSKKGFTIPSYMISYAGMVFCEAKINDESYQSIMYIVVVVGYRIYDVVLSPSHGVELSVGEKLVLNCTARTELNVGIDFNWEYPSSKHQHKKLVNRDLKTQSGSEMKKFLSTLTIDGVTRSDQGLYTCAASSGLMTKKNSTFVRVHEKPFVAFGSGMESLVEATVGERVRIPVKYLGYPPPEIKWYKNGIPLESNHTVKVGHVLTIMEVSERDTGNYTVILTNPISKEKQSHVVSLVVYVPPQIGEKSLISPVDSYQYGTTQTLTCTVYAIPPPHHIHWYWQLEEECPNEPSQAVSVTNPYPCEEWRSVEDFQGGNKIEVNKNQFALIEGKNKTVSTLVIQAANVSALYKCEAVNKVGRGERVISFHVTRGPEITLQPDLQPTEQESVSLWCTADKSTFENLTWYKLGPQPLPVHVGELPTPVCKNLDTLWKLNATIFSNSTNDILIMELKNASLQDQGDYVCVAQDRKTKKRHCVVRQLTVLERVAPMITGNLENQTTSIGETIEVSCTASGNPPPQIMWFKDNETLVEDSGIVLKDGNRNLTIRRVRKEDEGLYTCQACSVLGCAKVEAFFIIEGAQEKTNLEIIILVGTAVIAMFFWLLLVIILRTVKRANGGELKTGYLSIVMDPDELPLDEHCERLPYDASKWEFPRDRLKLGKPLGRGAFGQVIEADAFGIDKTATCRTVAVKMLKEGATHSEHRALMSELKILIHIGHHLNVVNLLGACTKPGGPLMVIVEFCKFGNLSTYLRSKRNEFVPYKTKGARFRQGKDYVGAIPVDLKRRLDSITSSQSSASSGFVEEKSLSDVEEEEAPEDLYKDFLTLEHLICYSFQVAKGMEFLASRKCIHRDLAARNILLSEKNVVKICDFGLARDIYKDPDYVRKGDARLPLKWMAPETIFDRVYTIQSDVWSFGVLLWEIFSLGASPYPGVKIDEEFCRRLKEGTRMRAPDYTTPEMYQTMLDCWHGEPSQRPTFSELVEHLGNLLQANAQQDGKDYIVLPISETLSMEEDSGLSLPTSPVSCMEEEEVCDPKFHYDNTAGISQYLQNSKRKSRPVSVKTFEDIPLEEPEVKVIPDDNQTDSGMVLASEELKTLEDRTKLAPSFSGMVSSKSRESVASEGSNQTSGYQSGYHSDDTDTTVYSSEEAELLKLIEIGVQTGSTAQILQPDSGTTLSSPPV

soluble KDR Ig4-7 domain [12] = biological target: T4, soluble KDR Ig4-7 domain; test: ELISA, KDR Ig4-7 coat (1:1 diln.), antibody 0.01 ug/mL
In short: as §1

human KDR [13] = biological target: T1, human KDR; test: FACS titration of purified antibody on HUVEC cells (FACS Kd)
Description: The binding affinities of the purified antibodies for endogenously-expressed KDR in HUVEC cells was measured. HUVEC cells were seeded at 150,000 cells/well and incubated with titrations of purified antibody for 4 hours at 4° C. The cells were then washed and incubated with goat anti-human IgG-Fc-Cy5+5 μg/mL 7-Amino-Actinomycin (7AAD) for 30 minutes at 4° C. Bound KDR was detected using FACS analysis.

human KDR [14] = biological target: T1, human KDR; test: FACS competition on 293T/human KDR transfectants; antibody 5 ug/mL first, then competitor VEGF165 50 ng/mL; bound VEGF165 detected
Description: (§3) Transfected cells were then seeded at 50,000 cells/well and incubated with 5 μg/mL of candidate antibody for one hour at 4° C. […] After washing, the cells were incubated with Cy5-conjugated rabbit anti-goat antibody plus 7AAD for 15 minutes at 4° C.

human KDR [15] = biological target: T1, human KDR; test: FACS competition on 293T/human KDR transfectants; antibody 5 ug/mL first, then competitor VEGF165 50 ng/mL; inhibition of VEGF binding
Description: as §3

human KDR on cells = human KDR on cells (human, UniProt P35968 20-1356); test: cell-based or functional assay
human KDR on cells, sequence (P35968 20-1356): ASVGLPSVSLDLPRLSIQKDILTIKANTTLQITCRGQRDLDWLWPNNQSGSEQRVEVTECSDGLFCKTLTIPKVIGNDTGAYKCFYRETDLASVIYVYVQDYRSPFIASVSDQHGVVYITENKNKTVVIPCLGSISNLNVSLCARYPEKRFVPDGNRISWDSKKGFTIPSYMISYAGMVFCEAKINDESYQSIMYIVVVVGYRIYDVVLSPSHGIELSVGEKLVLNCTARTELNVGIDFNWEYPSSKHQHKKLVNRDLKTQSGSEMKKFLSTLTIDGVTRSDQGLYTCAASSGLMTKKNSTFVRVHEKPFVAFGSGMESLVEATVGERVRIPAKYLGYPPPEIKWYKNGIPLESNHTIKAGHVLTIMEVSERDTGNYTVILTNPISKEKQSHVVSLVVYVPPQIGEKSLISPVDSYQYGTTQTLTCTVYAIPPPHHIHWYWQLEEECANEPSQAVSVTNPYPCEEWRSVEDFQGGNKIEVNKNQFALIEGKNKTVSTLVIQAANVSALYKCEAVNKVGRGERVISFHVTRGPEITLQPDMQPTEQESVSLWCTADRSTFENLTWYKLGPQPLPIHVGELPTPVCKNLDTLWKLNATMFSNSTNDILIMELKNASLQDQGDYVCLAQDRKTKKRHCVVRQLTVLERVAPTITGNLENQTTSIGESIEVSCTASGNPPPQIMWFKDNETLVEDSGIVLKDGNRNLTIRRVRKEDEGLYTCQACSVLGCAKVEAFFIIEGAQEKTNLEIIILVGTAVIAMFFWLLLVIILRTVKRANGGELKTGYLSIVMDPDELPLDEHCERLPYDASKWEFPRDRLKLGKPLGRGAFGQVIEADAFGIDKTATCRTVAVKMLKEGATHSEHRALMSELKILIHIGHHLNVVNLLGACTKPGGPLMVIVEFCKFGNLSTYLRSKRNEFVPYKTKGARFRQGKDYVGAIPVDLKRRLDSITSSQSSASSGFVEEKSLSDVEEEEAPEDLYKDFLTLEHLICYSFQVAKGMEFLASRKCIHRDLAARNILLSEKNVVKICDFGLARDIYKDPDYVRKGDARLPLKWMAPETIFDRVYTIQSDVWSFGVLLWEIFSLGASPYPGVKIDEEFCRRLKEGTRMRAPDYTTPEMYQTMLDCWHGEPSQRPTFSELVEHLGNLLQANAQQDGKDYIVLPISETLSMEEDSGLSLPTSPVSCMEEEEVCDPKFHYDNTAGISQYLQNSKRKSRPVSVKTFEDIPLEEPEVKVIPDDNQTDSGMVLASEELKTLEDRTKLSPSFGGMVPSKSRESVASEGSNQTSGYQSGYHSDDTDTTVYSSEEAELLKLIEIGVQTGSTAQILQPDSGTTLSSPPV

[16] = biological target: T6, KDR (antigen used as analyte in the Biacore assay) (UniProt P35968 20-764, limits assumed); test: SPR, Biacore 2000; antibody amine-coupled on CM4 chip, KDR as analyte; global 1:1 fit; 23 C
T6 construct: also called the antigen KDR
T6 sequence (P35968 20-764 limits assumed): as the sequence (P35968 20-764) above
Description: Each purified anti-KDR antibody was immobilized on a CM4 sensor chip within a Biacore 2000 using standard amine coupling. Immobilization levels were kept between 250 and 350 RU. The concentration of KDR was determined by UV-VIS spectroscopy using a molar absorptivity at 280 nm of 110, 440 M⁻¹ cm⁻¹, which was calculated from the sequence of the protein using a method developed by Pace et al. (G. R. Grimsley and C. N. Pace (2003) in Current Protocols in Protein Science (John Wiley & Sons, Inc.), 3.1.1-3.1.9). The antigen KDR was diluted to a starting concentration of 52 nM and tested in a 3-fold dilution series in triplicate. The running buffer contained HBS-P with 0.1 mg/ml BSA and binding responses were collected at 23 degrees C. […] The response data were globally fit with a simple 1:1 interaction model. The number shown in parentheses is the standard error in the last significant figure.

T1 sequence (P35968 20-1356): as the sequence (P35968 20-1356) above

KDR tyrosine phosphorylation in HUVEC, EC50 (nM), Average (human KDR [1]) [nM]	KDR tyrosine phosphorylation in HUVEC, EC50 (nM), N = 1 (human KDR [1]) [nM]	KDR tyrosine phosphorylation in HUVEC, EC50 (nM), N = 2 (human KDR [1]) [nM]	KDR tyrosine phosphorylation in HUVEC, Maximum Inhibition at 100 nM (% Inhibition), Average (human KDR [1]) [%]	KDR tyrosine phosphorylation in HUVEC, Maximum Inhibition at 100 nM (% Inhibition), N = 1 (human KDR [1]) [%]	KDR tyrosine phosphorylation in HUVEC, Maximum Inhibition at 100 nM (% Inhibition), N = 2 (human KDR [1]) [%]	6-keto Prostaglandin F1α release, EC50 (nM), Average (human KDR [3]) [nM]	6-keto Prostaglandin F1α release, EC50 (nM), N = 1 (human KDR [3]) [nM]	6-keto Prostaglandin F1α release, EC50 (nM), N = 2 (human KDR [3]) [nM]	6-keto Prostaglandin F1α release, Maximum Inhibition (% Inhibition), Average (human KDR [3]) [%]	6-keto Prostaglandin F1α release, Maximum Inhibition (% Inhibition), N = 1 (200 nM) (human KDR [3]) [%]	6-keto Prostaglandin F1α release, Maximum Inhibition (% Inhibition), N = 2 (333 nM) (human KDR [3]) [%]	ELISA reading [4]	ELISA reading [5]	ELISA reading [6]	ELISA reading [7]	ELISA reading [8]	Binder	HUVEC survival, Maximum Inhibition at 50 nM (% Inhibition), Average (human KDR [2]) [%]	HUVEC survival, Maximum Inhibition at 50 nM (% Inhibition), N = 1 (human KDR [2]) [%]	HUVEC survival, Maximum Inhibition at 50 nM (% Inhibition), N = 2 (human KDR [2]) [%]	other results
1.2	1.2	1.1	85	83	86	3.9	3.5	4.4	85	76	94	3.48	3.04	1.11	1.25	0.153	33C3 (antibody, V domains shown, Fully human monoclonal antibody from a XenoMouse hybridoma (IgG2 or IgG4 strain), purified) VH: QVQLVESGGGLVKPGESLRLSCAASGFTFSDYYMSWIRQAPGKGLEWVSYISHGGSTIYYADSVKGRFTISRDNAKNSLYLQMNSLRVEDTAVYFCARDDFWSGYYFNWFDPWGQGALVTVSS VL: DIQMTQYPLSLSASVGDRVTITCRASQSISSFLNWYHQKPGKAPKLLIYGTSSLQSGVPSRFSGSGSGTDFTLTISSLQPEDFATYYCQQTYSIPLTFGGGTNVEIK	101	106	95	ELISA reading [9]: 0.09; ELISA reading (soluble KDR Ig4-7 domain [10]): 0.094; ELISA reading (soluble KDR Ig4-7 domain [11]): 0.088; FACS Geometric Mean Fluorescence (cynomolgus KDR): 108; ELISA reading (soluble KDR Ig4-7 domain [12]): 0.073; Kd (human KDR [13]): 1 nM; FACS Geometric Mean Fluorescence (bound VEGF165) (human KDR [14]): 126; % Inhibition (human KDR [15]): 2%
3.1	2.7	3.4	77	75	79	5.3	5.1	5.6	70	63	76	3.21	2.94	1.91	1.2	0.089	22B8 (antibody, V domains shown, Fully human monoclonal antibody from a XenoMouse hybridoma (IgG2 or IgG4 strain), purified) VH: QLQLQESGPGLVKPSETLSLTCTVSGGSISSRYYYWGWVRQPPGKGLEWIGTIYYSGHTYYNPSLKTRVTISVDTSKNQFSLKLISVTAADTAVYYCATQQLVLYYFDFWGQGTLVTVSS VL: EIVLTQSPGTLSLSPGERAALSCRASQSISSSYLAWYQQRPGQAPRLLIYGASSRATGIPDRFNGSGSGTDFTLTISRLEPEDFAVYYCQQFGSSITFGQGTRLEIK	87	80	95	ELISA reading [9]: 0.075; ELISA reading (soluble KDR Ig4-7 domain [10]): 0.08; ELISA reading (soluble KDR Ig4-7 domain [11]): 0.078; FACS Geometric Mean Fluorescence (cynomolgus KDR): 103; ELISA reading (soluble KDR Ig4-7 domain [12]): 0.074; Kd (human KDR [13]): 1.8 nM; FACS Geometric Mean Fluorescence (bound VEGF165) (human KDR [14]): 120; % Inhibition (human KDR [15]): 7%
–	–	–	–	–	–	–	–	–	–	–	–	–	–	–	–	–	27D10 (antibody, V domains shown, Purified fully human monoclonal antibody from XenoMouse hybridoma (IgG2 or IgG4 strains); also called MAb 27D10) VH: QLQLQESGPGLVKPSETLSLTCTVSGGSISSRSDYWGWIRQPPGKGLEWIGTIYYSGSTFYNPSLKSRVTISVDTSKNQFSLKLSSVTAADTAVYYCARQQLVLYYFDYWGQGTLVTVSS VL: not shown	–	–	–	% Inhibition (Average) of VEGF-C-mediated KDR activity, antibody 1 nM (human KDR on cells): 51%; % Inhibition (Average) of VEGF-C-mediated KDR activity, antibody 10 nM (human KDR on cells): 76%; % Inhibition (Average) of VEGF-C-mediated KDR activity, antibody 100 nM (human KDR on cells): 80%; % Inhibition (N = 1) of VEGF-C-mediated KDR activity, antibody 1 nM (human KDR on cells): 52%; % Inhibition (N = 1) of VEGF-C-mediated KDR activity, antibody 10 nM (human KDR on cells): 73%; % Inhibition (N = 1) of VEGF-C-mediated KDR activity, antibody 100 nM (human KDR on cells): 76%; % Inhibition (N = 2) of VEGF-C-mediated KDR activity, antibody 1 nM (human KDR on cells): 50%; % Inhibition (N = 2) of VEGF-C-mediated KDR activity, antibody 10 nM (human KDR on cells): 79%; % Inhibition (N = 2) of VEGF-C-mediated KDR activity, antibody 100 nM (human KDR on cells): 84%; Kd [16]: 4.91 nM; koff [16]: 0.000254 s⁻¹; kon [16]: 51800 M⁻¹ s⁻¹
